Experimental data from patent US20160264649A1.

How the values were obtained:
Assay in all cases: cell-based or functional assay
[1] = molecular target: HIV-1 Env of isolate MGRM-F1-022 (subtype F) (HIV-1)
[2] = molecular target: HIV-1 Env of isolate MGRM-F1-008 (subtype F) (HIV-1)
[3] = molecular target: HIV-1 Env of isolate JRFL (subtype B) (HIV-1)
[4] = molecular target: HIV-1 Env of isolate 93UG077 (subtype A) (HIV-1)
[5] = molecular target: HIV-1 Env of pseudovirus isolate MGRM-G-013 (subtype G) (HIV-1)
[6] = molecular target: HIV-1 Env of pseudovirus isolate MGRM-G-004 (subtype G) (HIV-1)
[7] = molecular target: HIV-1 Env of isolate MGRM-F1-015 (subtype F) (HIV-1)
HIV-1 PVO.4 Env (HIV-1) = molecular target: HIV-1 PVO.4 Env (HIV-1)
[8] = molecular target: MuLV envelope (control pseudovirus)
HIV-1 DU422 Env (HIV-1) = molecular target: HIV-1 DU422 Env (HIV-1)
HIV-1 AC10 Env (HIV-1) = molecular target: HIV-1 AC10 Env (HIV-1)
[9] = molecular target: HIV-1 JR-FL Env E168K (HIV-1)
HIV-1 ZM249 Env (HIV-1) = molecular target: HIV-1 ZM249 Env (HIV-1)
[10] = molecular target: HIV-1 THRO.18 Env (HIV-1)
HIV-1 Du172 Env (HIV-1) = molecular target: HIV-1 Du172 Env (HIV-1)
HIV-1 DU156 Env (HIV-1) = molecular target: HIV-1 DU156 Env (HIV-1)
HIV-1 ZM214 Env (HIV-1) = molecular target: HIV-1 ZM214 Env (HIV-1)
HIV-1 ZM233 Env (HIV-1) = molecular target: HIV-1 ZM233 Env (HIV-1)
HIV-1 TR0.11 Env (HIV-1) = molecular target: HIV-1 TR0.11 Env (HIV-1)
HIV-1 CAAN Env (HIV-1) = molecular target: HIV-1 CAAN Env (HIV-1)
[11] = molecular target: HIV-1 REJ04541 Env (HIV-1)
HIV-1 CAP45 Env (HIV-1) = molecular target: HIV-1 CAP45 Env (HIV-1)

Chain of 1443_C16 (PG16) (TCN-116) (antibody) (VH): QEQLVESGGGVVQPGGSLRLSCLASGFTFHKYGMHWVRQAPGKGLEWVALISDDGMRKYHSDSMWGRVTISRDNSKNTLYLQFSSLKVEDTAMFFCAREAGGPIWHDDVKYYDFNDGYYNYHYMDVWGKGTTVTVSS
Chain of 1443_C16 (PG16) (TCN-116) (antibody) (VL): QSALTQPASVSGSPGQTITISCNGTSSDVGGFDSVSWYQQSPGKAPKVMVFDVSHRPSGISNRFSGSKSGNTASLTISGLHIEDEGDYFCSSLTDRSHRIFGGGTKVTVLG

VRC01 (antibody)
IC50 (pseudovirus neutralization) [1]: 0.055 µg/mL | IC50 (pseudovirus neutralization) [2]: 1.11 µg/mL | IC50 [3]: 0.034 µg/mL | IC50 (pseudovirus neutralization) [4]: 0.097 µg/mL | IC50 [5]: 0.553 µg/mL | IC50 [6]: > 50 µg/mL | IC50 (pseudovirus neutralization) [7]: 0.387 µg/mL

1443_C16 (PG16) (TCN-116) (antibody)
IC50, TZM-bl pseudovirus neutralization (HIV-1 PVO.4 Env (HIV-1)): 12.3 µg/mL | IC50, TZM-bl pseudovirus neutralization [8]: > 25 µg/mL | IC50, TZM-bl pseudovirus neutralization (HIV-1 DU422 Env (HIV-1)): 0.59 µg/mL | IC50, TZM-bl pseudovirus neutralization (HIV-1 AC10 Env (HIV-1)): < 0.01 µg/mL | IC50, TZM-bl pseudovirus neutralization [9]: 0.006 µg/mL | IC50, TZM-bl pseudovirus neutralization (HIV-1 ZM249 Env (HIV-1)): < 0.01 µg/mL | IC50, TZM-bl pseudovirus neutralization [10]: 2.19 µg/mL | IC50, TZM-bl pseudovirus neutralization (HIV-1 Du172 Env (HIV-1)): < 0.01 µg/mL | IC50, TZM-bl pseudovirus neutralization (HIV-1 DU156 Env (HIV-1)): < 0.01 µg/mL | IC50, TZM-bl pseudovirus neutralization (HIV-1 ZM214 Env (HIV-1)): > 25 µg/mL | IC50, TZM-bl pseudovirus neutralization (HIV-1 ZM233 Env (HIV-1)): < 0.01 µg/mL | IC50, TZM-bl pseudovirus neutralization (HIV-1 TR0.11 Env (HIV-1)): 3.61 µg/mL | IC50, TZM-bl pseudovirus neutralization (HIV-1 CAAN Env (HIV-1)): 6.37 µg/mL | IC50, TZM-bl pseudovirus neutralization [11]: < 0.01 µg/mL | IC50, TZM-bl pseudovirus neutralization (HIV-1 CAP45 Env (HIV-1)): < 0.01 µg/mL

PGV04 (antibody)
IC50 (pseudovirus neutralization) [1]: 0.072 µg/mL | IC50 (pseudovirus neutralization) [2]: 1.03 µg/mL | IC50 [3]: 0.032 µg/mL | IC50 (pseudovirus neutralization) [4]: 0.083 µg/mL | IC50 [5]: 0.168 µg/mL | IC50 [6]: > 50 µg/mL | IC50 (pseudovirus neutralization) [7]: 0.179 µg/mL
